Experimental data taken from the supplement of paper PMC7125110.
± gives the standard error. Fewer inactive variants are shown than the library holds.

B1: glmS ribozyme (parent)
chain: AUAAAAGCGCCAGAACUACAGAAAUGUAGUUGACGAGGAGGAGGUUUAUCGAAUUUUCGGCGGAUGCCUCCAAA

Key:
Settings in all cases: with glucosamine-6-phosphate
glucosamine-6-phosphate [1] = variants of: B1; experiment: self-cleavage kobs at 40 uM GlcN6P; higher = faster cleavage; RNA array
Outline: (§1)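 Tiles bearing barcoded ribozyme variants, transcribed in situ by E. coli RNA polymerase on sequenced MiSeq chips, were imaged over ~14 h at 37 °C using a hybridised Cy3 probe. Glucosamine-6-phosphate was supplied at 40 μM to 10 mM in HEPES/KCl/Mg(OAc)2 buffer. kobs came from one- or two-exponential decay fits to normalised per-tile medians, and weighted Michaelis–Menten fits then provided kcat and KM.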

glucosamine-6-phosphate [2] = variants of: B1; experiment: self-cleavage kobs at 10000 uM GlcN6P; higher = faster cleavage; RNA array
Outline: as §1

glucosamine-6-phosphate [3] = variants of: B1; experiment: self-cleavage kobs at 640 uM GlcN6P; higher = faster cleavage; RNA array
Outline: as §1

glucosamine-6-phosphate [4] = variants of: B1; experiment: self-cleavage kobs at 2500 uM GlcN6P; higher = faster cleavage; RNA array
Outline: as §1

glucosamine-6-phosphate [5] = variants of: B1; experiment: self-cleavage kobs at 160 uM GlcN6P; higher = faster cleavage; RNA array
Outline: as §1

| Variant | self-cleavage kobs at 40 uM GlcN6P (glucosamine-6-phosphate [1]) [s⁻¹] | self-cleavage kobs at 10000 uM GlcN6P (glucosamine-6-phosphate [2]) [s⁻¹] | self-cleavage kobs at 640 uM GlcN6P (glucosamine-6-phosphate [3]) [s⁻¹] | self-cleavage kobs at 2500 uM GlcN6P (glucosamine-6-phosphate [4]) [s⁻¹] | self-cleavage kobs at 160 uM GlcN6P (glucosamine-6-phosphate [5]) [s⁻¹] |
| --- | --- | --- | --- | --- | --- |
| A36U U47G C70G | 6.62e-05 ± 2.4e-05 | 4.91e-05 ± 1.4e-05 |  |  |  |
| A64C G66U C68G | < 1e-05 |  | < 1e-05 | < 1e-05 |  |
| G9A C16G A52U | < 1e-05 | < 1e-05 |  |  |  |
| A23C C71U | 0.00121 ± 0.0003 |  | 0.00652 ± 0.0018 |  | 0.000719 ± 0.0002 |
| G9U C16U G43U A53U | < 1e-05 | < 1e-05 |  |  |  |
| C34U U65A | < 1e-05 | < 1e-05 | < 1e-05 |  | < 1e-05 |
| U49C G59A C67G | < 1e-05 | < 1e-05 | < 1e-05 |  | < 1e-05 |
| G9U G41A | < 1e-05 | < 1e-05 | < 1e-05 | < 1e-05 | < 1e-05 |
| A15U A52U C70A | < 1e-05 |  |  |  |  |
| C8U G44C A52U C61A | < 1e-05 | < 1e-05 |  | < 1e-05 |  |
| G7A C67U | < 1e-05 |  | < 1e-05 |  | < 1e-05 |
| G29C U49G C58A | < 1e-05 |  |  |  |  |
| G40C C58G C67U | < 1e-05 |  |  |  |  |
| G7U G9A U57G C67A | < 1e-05 |  |  |  |  |
| G9U G43U | < 1e-05 | < 1e-05 | < 1e-05 | < 1e-05 |  |
| A6U C10A G41C U46A C70A | < 1e-05 | < 1e-05 |  | < 1e-05 |  |
| C10U C58G | < 1e-05 | < 1e-05 |  | < 1e-05 | < 1e-05 |
| C10U U45A C50U G66A | < 1e-05 | < 1e-05 |  |  |  |
| G9A C16U | < 1e-05 | 3.09e-05 ± 1.5e-05 | < 1e-05 | < 1e-05 | < 1e-05 |
| G43A A64G | < 1e-05 | 4.35e-05 ± 1.7e-05 |  |  | < 1e-05 |
| C50U U57A G60U | < 1e-05 | < 1e-05 |  |  |  |
| A39G U45G A48G | < 1e-05 | 6.43e-05 ± 1.9e-05 |  |  |  |
| C10A G29C U56C A64G | < 1e-05 |  |  |  |  |

| Variant | self-cleavage kobs at 40 uM GlcN6P (glucosamine-6-phosphate [1]) [s⁻¹] | self-cleavage kobs at 10000 uM GlcN6P (glucosamine-6-phosphate [2]) [s⁻¹] | self-cleavage kobs at 640 uM GlcN6P (glucosamine-6-phosphate [3]) [s⁻¹] | self-cleavage kobs at 2500 uM GlcN6P (glucosamine-6-phosphate [4]) [s⁻¹] | self-cleavage kobs at 160 uM GlcN6P (glucosamine-6-phosphate [5]) [s⁻¹] |
| --- | --- | --- | --- | --- | --- |
| G9U A33U A52U U56G | < 1e-05 |  |  |  |  |
| G43U A64U | < 1e-05 | < 1e-05 | < 1e-05 | < 1e-05 |  |
| G41U G66C C68U | < 1e-05 |  | < 1e-05 | < 1e-05 | < 1e-05 |
| G29A C71U | 0.000141 ± 2e-05 | 0.00436 ± 0.00077 | 0.000549 ± 7.9e-05 | 0.00526 ± 0.0012 | 0.000261 ± 8.2e-05 |
| A39C G59C | < 1e-05 | < 1e-05 | < 1e-05 | < 1e-05 | < 1e-05 |
| A12G G40C G43C | < 1e-05 | < 1e-05 | < 1e-05 |  |  |
| U30G A36U G51A | < 1e-05 |  |  |  |  |
| G37A C50U | < 1e-05 |  |  | < 1e-05 | < 1e-05 |
| G7A C50G | 4.24e-05 ± 1.5e-05 |  |  |  | 6.67e-05 ± 2e-05 |
| A33C G63C | < 1e-05 | < 1e-05 |  | < 1e-05 | < 1e-05 |
| A6U G7A G44U A52U U55C A64U | < 1e-05 | < 1e-05 | < 1e-05 |  |  |
| G29U U45A C61A | < 1e-05 |  |  |  |  |
| A53U U55A C67G | 0.000155 ± 4.4e-05 | 0.00212 ± 0.00067 |  |  |  |
| A42C C50U U69A | < 1e-05 | < 1e-05 |  |  |  |
| C11A A14C A36G C50U C58U C61G | 0.000206 ± 8.1e-05 |  |  |  |  |
| G9C C34A A42U G43A | < 1e-05 |  |  |  |  |
| G37C G41U U54G | < 1e-05 |  |  |  |  |
| U30C G35A | < 1e-05 | < 1e-05 | < 1e-05 | < 1e-05 | < 1e-05 |
| A33C A42C | < 1e-05 | < 1e-05 | < 1e-05 |  | < 1e-05 |
| A6U C8G G38C G43A | < 1e-05 | < 1e-05 |  |  |  |
| G13C A33G A48C | < 1e-05 |  |  | < 1e-05 |  |
| A48U G62C C70U | < 1e-05 | < 1e-05 | < 1e-05 | < 1e-05 |  |
| G41A C68G | < 1e-05 | < 1e-05 | < 1e-05 | < 1e-05 | < 1e-05 |
